Biological target: the molecule itself
Assay: cross-linking; purified proteins in PBS oxidised with 5, 10 and 20 μM CuCl2 for 10 min (disulfide bonds), non-reducing 10% SDS-PAGE, immunoblot; β-amylase alone or mixed with serpin Z4 at 1:2 and 1:5

B1: serpin Z4 (natural protein, barley (Hordeum vulgare) cv. Harrington, UniProt P06293 1-399, looked up)
chain: MATTLATDVRLSIAHQTRFALRLRSAISSNPERAAGNVAFSPLSLHVALSLITAGAAATRDQLVAILGDGGAGDAKELNALAEQVVQFVLANESSTGGPRIAFANGIFVDASLSLKPSFEELAVCQYKAKTQSVDFQHKTLEAVGQVNSWVEQVTTGLIKQILPPGSVDNTTKLILGNALYFKGAWDQKFDESNTKCDSFHLLDGSSIQTQFMSSTKKQYISSSDNLKVLKLPYAKGHDKRQFSMYILLPGAQDGLWSLAKRLSTEPEFIENHIPKQTVEVGRFQLPKFKISYQFEASSLLRALGLQLPFSEEADLSEMVDSSQGLEISHVFHKSFVEVNEEGTEAGAATVAMGVAMSMPLKVDLVDFVANHPFLFLIREDIAGVVVFVGHVTNPLISA
notes: serpin Z4 of barley (Hordeum vulgare) cv; Harrington, cloned from cDNA into pET28-(a); In one direction of the MST experiment the protein carried an NHS-ester fluorescent dye; in one direction of the SPR experiment it was amine-coupled to a CM5 chip; source: E. coli SHuffle cells, purified (Ni-NTA, gel filtration on Superdex 200 Increase)
  binding result: binds

Reference: paper PMC6508567, “Noncanonical interactions between serpin and β‐amylase in barley grain improve β‐amylase activity in vitro” (Plant Direct, 2018)
